This note sets out measurements from PMC11643816, “Determination of Lactoferrin Using High-Frequency Piezoelectric Quartz Aptamer Biosensor Based on Molecular Bond Rupture”.

Data set [1] addresses T1, alpha-lactalbumin (UniProt P00711).
T1 sequence: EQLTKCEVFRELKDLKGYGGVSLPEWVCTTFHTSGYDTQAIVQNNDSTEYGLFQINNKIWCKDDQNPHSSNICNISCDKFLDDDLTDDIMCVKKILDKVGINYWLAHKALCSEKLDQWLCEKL
Briefly: QCM bond rupture sandwich. To be noted: 100 ng/mL; sandwich with aptamer II beads; 5'-SH-(CH2)6; 30 °C, 70 min per binding step; aptamer I 3 μmol/L on gold with MCH block; aptamer II beads stored in 10 mmol/L PBS; binding buffer, salt and pH not stated.

The target of data set [2] is T2, lactoferrin (LF) (UniProt P24627 20-708). Nature of the data set: QCM bond rupture sandwich; cyclic voltammetry; aptamer II on magnetic beads, LF captured by aptamer I; 1180 Hz shift at 100 ng/mL LF; 30 °C, 70 min per binding step; aptamer I 3 μmol/L on gold with MCH block; aptamer II beads stored in 10 mmol/L PBS; binding buffer, salt and pH not stated. To be noted: protein: commercial.
T2 sequence (P24627 20-708): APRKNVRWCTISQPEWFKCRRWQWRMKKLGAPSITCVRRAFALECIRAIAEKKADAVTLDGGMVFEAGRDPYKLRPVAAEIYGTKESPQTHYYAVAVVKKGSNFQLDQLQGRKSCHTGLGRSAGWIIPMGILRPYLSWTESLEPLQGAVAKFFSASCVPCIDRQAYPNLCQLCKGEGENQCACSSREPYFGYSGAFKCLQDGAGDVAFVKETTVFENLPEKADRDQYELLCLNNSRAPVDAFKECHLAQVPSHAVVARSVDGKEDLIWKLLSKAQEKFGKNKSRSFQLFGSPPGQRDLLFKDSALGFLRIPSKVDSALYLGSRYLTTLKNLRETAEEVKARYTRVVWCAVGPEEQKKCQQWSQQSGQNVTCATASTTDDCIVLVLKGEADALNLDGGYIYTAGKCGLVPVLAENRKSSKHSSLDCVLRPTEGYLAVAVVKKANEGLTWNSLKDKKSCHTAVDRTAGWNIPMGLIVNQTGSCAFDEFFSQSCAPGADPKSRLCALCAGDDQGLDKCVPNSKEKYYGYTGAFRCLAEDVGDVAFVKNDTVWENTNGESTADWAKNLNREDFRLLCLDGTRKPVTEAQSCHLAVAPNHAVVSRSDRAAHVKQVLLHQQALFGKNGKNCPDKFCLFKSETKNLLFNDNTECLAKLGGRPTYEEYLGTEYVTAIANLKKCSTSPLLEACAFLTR

In data set [3] the target is T2, lactoferrin (LF). Briefly: QCM bond rupture sandwich; cyclic voltammetry; aptamer I on gold, 100 ng/mL LF; 30 °C, 70 min per binding step; aptamer I 3 μmol/L on gold with MCH block; aptamer II beads stored in 10 mmol/L PBS; binding buffer, salt and pH not stated. To be noted: protein: commercial.

With “TGGTGCTGCCCCTAGTCTCCGGCTGCTTCTTGG [aptamer I]”, the binding signal (% of LF signal) in data set [1] stood at 8.39.

For the molecule AGGCAGGACACCGTAACCGGTGCATCTATGGCTACTAGCTTTTCCTGCCT (ssDNA, 5'-SH-(CH2)6 as printed) [aptamer II], the binding result in data set [2] was “binds”.

For the molecule TGGTGCTGCCCCTAGTCTCCGGCTGCTTCTTGG (ssDNA, 5'-SH-(CH2)6) [aptamer I], in data set [3], the binding result was “binds”.
